The values that follow come from patent US20040220079A1.

The assay concerns the target M2pd (modified M2 containing amino acids from Ala-8p to Ala326) (human) (UniProt P56817). The assay is described as follows: cell-based or functional assay.

M2pd (modified M2 containing amino acids from Ala-8p to Ala326) (human), sequence (P56817 22-501 limits assumed): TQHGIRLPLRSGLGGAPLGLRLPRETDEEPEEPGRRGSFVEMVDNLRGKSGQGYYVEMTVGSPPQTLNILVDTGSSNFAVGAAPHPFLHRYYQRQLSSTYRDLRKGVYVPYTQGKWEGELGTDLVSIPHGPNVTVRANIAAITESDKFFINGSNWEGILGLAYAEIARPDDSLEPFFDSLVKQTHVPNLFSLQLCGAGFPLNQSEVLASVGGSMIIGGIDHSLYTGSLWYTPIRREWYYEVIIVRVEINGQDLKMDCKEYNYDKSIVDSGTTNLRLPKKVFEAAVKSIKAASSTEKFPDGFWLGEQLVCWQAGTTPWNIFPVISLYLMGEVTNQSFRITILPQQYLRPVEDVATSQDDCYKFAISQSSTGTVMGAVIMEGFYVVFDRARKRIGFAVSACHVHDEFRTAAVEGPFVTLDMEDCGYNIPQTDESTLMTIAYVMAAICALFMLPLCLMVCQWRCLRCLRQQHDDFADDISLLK

The substance Pepstatin A (peptide) gave an IC50 of inhibition of enzyme activity of 300 µM.
